Patent US20240336664A1, “SULFATED POLYPEPTIDES FOR SYSTEMIC DELIVERY” (priority 2021, published 2024)

Tested on: C2C12 mouse myoblasts
Assay: Luciferase reporter expression from muscle promoters
Type: cell-based
Details: 48 hours post transfection, FIG. 6
Source text: The present Example includes the recognition that certain promoters utilized herein have advantageous characteristics for expression of operably linked coding sequences in muscle cells, as exemplified in the present Example in C2C12 mouse myoblasts as a representative muscle cell type. In the present Example, a luciferase reporter construct was expressed in C2C12 mouse myoblasts using each of three promoters. Cells were mock transfected or transfected with vectors expressing luciferase using Lipofectamine LTS Plus reagent in a 96-well plate. 48 hours post transfection luciferase activity was measured using ONE-Glo™ Luciferase Assay System (E6110, Promega).

B1: SEQ ID NO: 3: promoter nucleic acid sequence driving a luciferase expression construct in muscle cells (nucleic acid)
DNA: CAGGCCCTGTAACTTTTCCAATAAAATATTCTATTAGAAACAAGTTCCTTCTAGATCTTCCTAAAAGAATACTAAAGGACCAAACCGTGCAACAGCACTGGTGGTATTGTCTTAATTTAGAGAGTCCATACCAGTGATTCTCAAACATTAGTATGCTCAGAGTTTCTGGTTCAATAGGTCTGGGCCGGGCCCAGGGAATTTTCATTTCTAAGAAGTTCGCAGGTGATACTGATAACTGCTGTTCCCAGGGTCTACATTTTGAGATCCGCTGCTATGTCACAAATCCAAATCCAAAGTCTTTTTAACAATCCCTTTTAGCCCAGGATGAGCCTAACGGCAATTTCACGTCCTTATCGCCGGCCACTTTAATCTTCAACTGAGGAGGAAGGGAGAGTGAGAATTATGTATATAATTTTTTTCTTTTATTTTTTAAAAAGAAAACTCCAAGCCCACACTCTTAATTATCTGGGATGAGGTCATTTGCACCTGGGTCATTTATTTAGACAACAAGTAGTCTTGCTAGAGGCTTTAAGGAGGTGTTAGCAGAGCGGTGTGTGGCTTCCAGGTTCCTGGGTCTACCTTAAATCCCCATCCTCTTTCTTTCTTTCTTTCTTTCTTTCTTTCTCTTTTCTTTTTCCTTTCCGTTTTGAAAGCCCCAACTGCCCAGTCTCTGGGTGTCCGGGTTCCCAGGTCCCTAGGTGGGGGCGGAGCCCGACACGGCCCCGCCCCGTCTGCCCGCAGCGCCCCCTCCCCGGCCCGCCCGCGCCGGCTCCTCCGCAGTGCTTTCAGCTGTGAGCTTGGGCGGCGGCGGCGGCGGCGCTCCACTTTCGGGGAGCCCGGCGGCTCTGGGAAGCTCACTCCTCCACTCGTACCCACACTCGACCGCGGAGCCCTTGCAGCCATGAGGGAACAGCTCAAAGGGTAAGTGGA
luciferase expression vs promoters SEQ ID NO: 4 and SEQ ID NO: 5 and mock: substantially greater expression
